{"source": "patent US20040005333A1", "about": "(HER MAJESTY THE QUEEN IN RIGHT OF CANADA AS REPRESENTED BY …, published 2004)", "binders": {"B1": {"name": "mA116huFc Ab (Fc fusion)", "chain": "MRGSHHHHHHGMASMTGGQQMGRDLYDDDDKDRWGSELEICSWYHGIPLVVPFYAAQPAMAQVQLQESGPELVKPGASVKISCKASGYTFTDYHVHWVKGKPGQGLEWIGMTYPGFDNTNYSETFKGKATLTVDTSSNTVYMQLSSLTSEDTAVYFCARGVGLDYWGQGTTVTVSSGGGGSGGGGSGGGGSDIELTQSPNSLSTSIGDRIRITCKASQDVDTAVGWYQQRPGQSPKLLIFWSSTRHTGVPDRFTGSGSGTDFTLTISNVQSEDLADYFCHQYSSYPFTFGSGTKLEIKRAAAGCLVKDYFPEPVTVSWNSGALTSGVHTFPAVLQSSGLYSLSSVVTVPSSSLGTQTYICNVNHKPSNTKVDKRVEPKSCDKTHTCPPCPAPELLGGPSVFLFPPKPKDTLMISRTPEVTCVVVDVSHEDPEVKFNWYVDGVEVHNAKTKPREEQYNSTYRVVSVLTVLHQDWLNGKEYKCKVSNKALPAPIEKTISKAKGQPREPQVYTLPPSRDELTKNQVSLTCLVKGFYPSDIAVEWESNGQPENNYKTTPPVLDSDGSFFLYSKLTVDKSRWQQGNVFSCSVMHEALHNHYTQKSLIRLLTKPERKLSWLLPPLSNN", "notes": "also called recombinant mA116huFc Ab; 70 kDa protein"}, "B2": {"name": "mA116 scFv Ab (scFv)", "scFv": "QVQLQESGPELVKPGASVKISCKASGYTFTDYHVHWVKGKPGQGLEWIGMTYPGFDNTNYSETFKGKATLTVDTSSNTVYMQLSSLTSEDTAVYFCARGVGLDYWGQGTTVTVSSGGGGSGGGGSGGGGSDIELTQSPNSLSTSIGDRIRITCKASQDVDTAVGWYQQRPGQSPKLLIFWSSTRHTGVPDRFTGSGSGTDFTLTISNVQSEDLADYFCHQYSSYPFTFGSGTKLEIK", "notes": "also called repaired A116 scFv Ab"}}, "key": {"human C1q protein": {"molecular_target": "T1, human C1q protein (human, UniProt P02745 23-245; P02746 28-253; P02747 29-245)", "T1 construct": "also called human C1q complement", "T1 sequence (P02745 23-245 limits assumed, chain 1 of 3)": "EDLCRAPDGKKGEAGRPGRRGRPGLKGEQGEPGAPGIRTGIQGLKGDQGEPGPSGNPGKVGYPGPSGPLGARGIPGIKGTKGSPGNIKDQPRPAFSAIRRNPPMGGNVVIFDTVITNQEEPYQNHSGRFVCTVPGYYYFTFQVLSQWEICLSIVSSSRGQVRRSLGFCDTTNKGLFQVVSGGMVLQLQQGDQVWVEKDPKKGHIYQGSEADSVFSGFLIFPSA", "T1 sequence (P02746 28-253 limits assumed, chain 2 of 3)": "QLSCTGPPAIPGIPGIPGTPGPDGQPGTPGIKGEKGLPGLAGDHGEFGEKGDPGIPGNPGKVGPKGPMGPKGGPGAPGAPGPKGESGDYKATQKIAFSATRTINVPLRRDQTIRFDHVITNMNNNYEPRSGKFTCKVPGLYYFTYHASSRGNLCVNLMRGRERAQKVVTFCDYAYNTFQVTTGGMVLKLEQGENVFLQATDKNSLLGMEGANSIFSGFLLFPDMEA", "T1 sequence (P02747 29-245 limits assumed, chain 3 of 3)": "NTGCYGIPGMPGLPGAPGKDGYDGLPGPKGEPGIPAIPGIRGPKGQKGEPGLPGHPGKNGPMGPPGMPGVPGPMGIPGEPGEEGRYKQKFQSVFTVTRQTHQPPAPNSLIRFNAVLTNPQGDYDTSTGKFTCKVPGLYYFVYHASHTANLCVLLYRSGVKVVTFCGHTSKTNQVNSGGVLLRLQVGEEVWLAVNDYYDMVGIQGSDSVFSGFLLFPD", "assay": "ELISA on strips coated with human C1q, HRP-anti-human Ab detection"}, "protein G agarose": {"molecular_target": "protein G agarose (UniProt P06654 228-352)", "sequence (P06654 228-352)": "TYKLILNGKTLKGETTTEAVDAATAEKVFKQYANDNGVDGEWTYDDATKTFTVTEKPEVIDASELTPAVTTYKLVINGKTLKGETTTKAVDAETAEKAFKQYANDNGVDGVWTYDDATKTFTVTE", "assay": "protein G agarose precipitation, SDS-PAGE with Coomassie staining"}}, "data": [{"binder": "B1", "values": [{"measurement": "binding result", "setting": "human C1q protein", "value": "binds"}]}, {"binder": "B2", "values": [{"measurement": "binding result", "setting": "protein G agarose", "value": "no binding"}]}]}
